In patent US20040116336A1, “Peptide derivatives” (priority 2002, published 2004):
Starred links: 1 amine or outer side, 2 acyl side, 3 side chain; linkers in the order of their positions; H or OH if unused. Non-standard residues stand in square brackets, D forms with d. No end group written: not given here. *: point of attachment. Phe(4-Cl) = N[C@@H](Cc1ccc(Cl)cc1)C(=O)O; Adipoyl = O=C(CCCCC(=O)[*:2])[*:1]; Cha = N[C@@H](CC1CCCCC1)C(=O)O; pGlu = O=C1CC[C@@H](C(=O)O)N1; Morpholide = C1CN(*)CCO1; Nle = CCCC[C@H](N)C(=O)O; Dap = NC[C@H](N)C(=O)O; Hexanoyl = CCCCCC(=O)*

B1: Arg-Pro-Arg-Leu-Ser-His-Ala-Gly-Pro-Cha-Pro-Phe(Cl) (peptide)
chain: RPRLSHAGP[Cha]PX
modifications: not fully specified (residue 12); printed as Arg-Pro-Arg-Leu-Ser-His-Ala-Gly-Pro-Cha-Pro-Phe(Cl)
B2: Arg-Pro-Arg-Leu-Phe-His-Lys-Gly-Pro-Cha-Pro-Phe(Cl) (peptide)
chain: RPRLFHKGP[Cha]PX
modifications: not fully specified (residue 12); printed as Arg-Pro-Arg-Leu-Phe-His-Lys-Gly-Pro-Cha-Pro-Phe(Cl)
B3: Arg-Pro-Arg-Leu-Phe-His-Lys-Gly-Pro-Cha-Phe(Cl) (peptide)
chain: RPRLFHKGP[Cha]X
modifications: not fully specified (residue 11); printed as Arg-Pro-Arg-Leu-Phe-His-Lys-Gly-Pro-Cha-Phe(Cl)
B4: Arg-Pro-Arg-Ala-Ser-His-Lys-Gly-Pro-Cha-Pro-Phe(Cl) (peptide)
chain: RPRASHKGP[Cha]PX
modifications: not fully specified (residue 12); printed as Arg-Pro-Arg-Ala-Ser-His-Lys-Gly-Pro-Cha-Pro-Phe(Cl)
B5: Arg-Arg-Gln-Arg-Pro-Arg-Leu-Ser-His-Lys-Gly-Pro-Cha-Pro-Phe(Cl) (peptide)
chain: RRQRPRLSHKGP[Cha]PX
modifications: not fully specified (residue 15); printed as Arg-Arg-Gln-Arg-Pro-Arg-Leu-Ser-His-Lys-Gly-Pro-Cha-Pro-Phe(Cl)
B6: pGlu-Arg-Pro-Arg-Leu-Ser-His-Lys-Gly-Pro-Met-Nal(2) (peptide)
chain: XRPRLSHKGPMX
modifications: N-terminal pGlu; C-terminal Nal(2); peptide derivative; Xaa on the 1st position means pGlu; Xaa on the 12th position means Nal(2)
B7: Arg-Pro-Arg-Leu-Phe-Ala-Arg-Gly-Pro-Cha-Pro-Phe(Cl) (peptide)
chain: RPRLFARGP[Cha]PX
modifications: not fully specified (residue 12); printed as Arg-Pro-Arg-Leu-Phe-Ala-Arg-Gly-Pro-Cha-Pro-Phe(Cl)
B8: pGlu-Arg-Pro-Arg-Leu-Ser-His-Lys-Gly-Pro-Met-Cha (peptide)
chain: XRPRLSHKGPMX
modifications: N-terminal pGlu; C-terminal Cha; peptide derivative; Xaa on the 1st position means pGlu; Xaa on the 12th position means Cha
B9: pGlu-Arg-Pro-Arg-Leu-Ser-His-Lys-Gly-Pro-Cha-Pro-Phe (peptide)
chain: XRPRLSHKGPXPF
modifications: N-terminal pGlu; Cha non-natural residue; peptide derivative; Xaa on the 1st position means pGlu.; Xaa on the 11th position means Cha.
B10: Arg-Arg-Lys(Arg-Arg)-Arg-Pro-Arg-Leu-Ser-His-Lys-Gly-Pro-Met-Pro-Phe (peptide)
chain: RRXRPRLSHKGPMPF
modifications: N-terminal branched Arg-Arg-Lys(Arg-Arg); peptide derivative; Xaa means Lys(Arg-Arg)
B11: Arg-Pro-Ala-Leu-Ser-His-Lys-Gly-Pro-Cha-Pro-Phe(Cl) (peptide)
chain: RPALSHKGP[Cha]PX
modifications: not fully specified (residue 12); printed as Arg-Pro-Ala-Leu-Ser-His-Lys-Gly-Pro-Cha-Pro-Phe(Cl)
B12: Arg-Pro-Arg-Leu-Ser-Ala-Arg-Gly-Pro-Cha-Phe(Cl) (peptide)
chain: RPRLSARGP[Cha]X
modifications: not fully specified (residue 11); printed as Arg-Pro-Arg-Leu-Ser-Ala-Arg-Gly-Pro-Cha-Phe(Cl)
B13: Arg-Pro-Arg-Leu-Ser-Ala-Arg-Gly-Pro-Cha-Pro-Phe(Cl) (peptide)
chain: RPRLSARGP[Cha]PX
modifications: not fully specified (residue 12); printed as Arg-Pro-Arg-Leu-Ser-Ala-Arg-Gly-Pro-Cha-Pro-Phe(Cl)

How the values were obtained:
[1] = target: APJ (orphan G protein-coupled receptor protein); assay: radioligand competition, compound of Ref. Ex. 2 as labelled ligand, CHO-A10 membrane fraction
Sequence of APJ (orphan G protein-coupled receptor protein) (P35414 whole entry): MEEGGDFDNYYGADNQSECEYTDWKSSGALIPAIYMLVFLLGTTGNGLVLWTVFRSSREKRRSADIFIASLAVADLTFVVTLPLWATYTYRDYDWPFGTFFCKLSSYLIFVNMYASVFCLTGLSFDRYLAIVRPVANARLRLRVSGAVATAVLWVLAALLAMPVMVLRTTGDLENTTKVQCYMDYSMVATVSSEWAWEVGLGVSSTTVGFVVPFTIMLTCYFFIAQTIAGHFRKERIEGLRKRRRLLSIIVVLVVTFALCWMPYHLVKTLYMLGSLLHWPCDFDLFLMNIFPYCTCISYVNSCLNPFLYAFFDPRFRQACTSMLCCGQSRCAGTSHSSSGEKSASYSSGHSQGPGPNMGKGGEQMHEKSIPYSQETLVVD

[2] = target: APJ (orphan G protein-coupled receptor protein); assay: radioligand competition, 125I-labelled compound of Ref. Ex. 1 (100 pM), CHO-A10 membrane fraction
[3] = target: APJ (orphan G protein-coupled receptor protein); assay: cell-based or functional assay

Row | Binder | IC50 [1] [nM] | IC50 [2] [nM] | EC50, inhibition of forskolin-stimulated cAMP production (CHO-A10 clone 6 cells) [3] [nM]
1 | RRQRPRLSARGPX (C-terminal Cha; peptide derivative; Xaa means Cha.) [Arg-Arg-Gln-Arg-Pro-Arg-Leu-Ser-Ala-Arg-Gly-Pro-Cha] | 0.046 | 1.4 | 0.55
2 | B1 | 0.22 | 0.58 | 0.58
3 | B2 | 0.29 | 2.7 | 1
4 | B3 | 0.54 |  | 0.43
5 | B4 | 0.17 | 0.52 | 0.52
6 | RPRLSARGP[Cha]PF [Arg-Pro-Arg-Leu-Ser-Ala-Arg-Gly-Pro-Cha-Pro-Phe] | 0.084 | 2.2 | 0.59
7 | RPRLS[Dap](Adipoyl)RGP[Cha]P[Phe(4-Cl)] [Arg-Pro-Arg-Leu-Ser-Dap(Adi)-Arg-Gly-Pro-Cha-Pro-Phe(Cl)] | 0.13 | 0.42 | 0.42
8 | XRPRLSHRGPMPF (N-terminal pGlu; peptide derivative; Xaa means pGlu) [pGlu-Arg-Pro-Arg-Leu-Ser-His-Arg-Gly-Pro-Met-Pro-Phe] | 0.4 |  | 0.2
9 | B5 | 0.33 | 0.47 | 0.53
10 | XRPRLSLKGPMPF (N-terminal pGlu; peptide derivative; Xaa means pGlu) [pGlu-Arg-Pro-Arg-Leu-Ser-Leu-Lys-Gly-Pro-Met-Pro-Phe] | 0.59 |  | 0.16
11 | RPRLSHKGPMPX (C-terminal Cha; peptide derivative; Xaa means Cha) [Arg-Pro-Arg-Leu-Ser-His-Lys-Gly-Pro-Met-Pro-Cha] | 3.5 |  | 0.71
12 | XRPRLSHFGPMPF (N-terminal pGlu; peptide derivative; Xaa means pGlu) [pGlu-Arg-Pro-Arg-Leu-Ser-His-Phe-Gly-Pro-Met-Pro-Phe] | 2.6 |  | 0.3
13 | XRPRLSAKGPMPF (N-terminal pGlu; peptide derivative; Xaa means pGlu) [pGlu-Arg-Pro-Arg-Leu-Ser-Ala-Lys-Gly-Pro-Met-Pro-Phe] | 0.21 |  | 0.22
14 | B6 | 1.4 |  | 0.52
15 | XRPRLSRKGPMPF (N-terminal pGlu; peptide derivative; Xaa means pGlu) [pGlu-Arg-Pro-Arg-Leu-Ser-Arg-Lys-Gly-Pro-Met-Pro-Phe] | 0.23 |  | 0.081
16 | B7 | 0.38 | 2.3 | 1.2
17 | B8 | 1.3 |  | 0.3
18 | RPRLFHKGP[Cha]PF [Arg-Pro-Arg-Leu-Phe-His-Lys-Gly-Pro-Cha-Pro-Phe] | 0.13 | 8 | 0.46

Row | Binder | IC50 [1] [nM] | IC50 [2] [nM] | EC50, inhibition of forskolin-stimulated cAMP production (CHO-A10 clone 6 cells) [3] [nM]
19 | B9 | 0.16 | 13 | 0.35
20 | B10 | 0.84 | 2.9 | 0.57
21 | RPRLS[Dap](Hexanoyl)RGP[Cha]P[Phe(4-Cl)] [Arg-Pro-Arg-Leu-Ser-Dap(C6)-Arg-Gly-Pro-Cha-Pro-Phe(Cl)] | 0.45 | 1.1 | 1.1
22 | [pGlu]RPRLFRRGPMPF [pGlu-Arg-Pro-Arg-Leu-Phe-Arg-Arg-Gly-Pro-Met-Pro-Phe] | 0.81 |  | 0.15
23 | XRPRLSHLGPMPF (N-terminal pGlu; peptide derivative; Xaa means pGlu) [pGlu-Arg-Pro-Arg-Leu-Ser-His-Leu-Gly-Pro-Met-Pro-Phe] | 3.6 |  | 0.16
24 | RPRLSHKGPMX (C-terminal Cha; peptide derivative; Xaa means Cha) [Arg-Pro-Arg-Leu-Ser-His-Lys-Gly-Pro-Met-Cha] | 0.51 |  | 0.22
25 | RRQRPRLSARG-Morpholide [Arg-Arg-Gln-Arg-Pro-Arg-Leu-Ser-Ala-Arg-Gly-Mor] | 0.26 |  | 1.2
26 | RRQRPRLSHKGPX (oxidized C-terminal residue; peptide; Xaa means Met(O)) [Arg-Arg-Gln-Arg-Pro-Arg-Leu-Ser-His-Lys-Gly-Pro-Met(O)] | 0.62 |  | 0.48
27 | RRQRPRLSHKGP[Nle]PY [Arg-Arg-Gln-Arg-Pro-Arg-Leu-Ser-His-Lys-Gly-Pro-Nle-Pro-Tyr] | 0.027 | 2.7 | 0.28
28 | B11 | 0.15 | 0.41 | 0.41
29 | XRPRLSFKGPMPF (N-terminal pGlu; peptide derivative; Xaa means pGlu) [pGlu-Arg-Pro-Arg-Leu-Ser-Phe-Lys-Gly-Pro-Met-Pro-Phe] | 0.95 |  | 0.24
30 | RRQRPRLSARG-NMe2 [Arg-Arg-Gln-Arg-Pro-Arg-Leu-Ser-Ala-Arg-Gly-NMe2] | 0.16 |  | 0.49
31 | [pGlu]RPRLSRRGPMPF [pGlu-Arg-Pro-Arg-Leu-Ser-Arg-Arg-Gly-Pro-Met-Pro-Phe] | 0.73 |  | 0.069
32 | XRPRLFHKGPMPF (N-terminal pGlu; peptide derivative; Xaa means pGlu) [pGlu-Arg-Pro-Arg-Leu-Phe-His-Lys-Gly-Pro-Met-Pro-Phe] | 0.99 |  | 0.22
33 | B12 | 0.1 | 1 | 0.65
34 | RPRLSHKGPMX (Nal(2) non-natural residue; peptide derivative; Xaa means Nal(2)) [Arg-Pro-Arg-Leu-Ser-His-Lys-Gly-Pro-Met-Nal(2)] | 0.61 |  | 0.37
35 | RPRLSHKGPMPX (C-terminal Nal(2); peptide derivative; Xaa means Nal(2)) [Arg-Pro-Arg-Leu-Ser-His-Lys-Gly-Pro-Met-Pro-Nal(2)] | 0.35 |  | 0.1
36 | B13 | 0.13 | 1.2 | 0.51
